Consider one substance from IntAct's records for PubMed 17210637.

This assay has as its target merl_human NF2 (UniProt P35240).
Sequence of UniProt P35240 (P35240 whole entry): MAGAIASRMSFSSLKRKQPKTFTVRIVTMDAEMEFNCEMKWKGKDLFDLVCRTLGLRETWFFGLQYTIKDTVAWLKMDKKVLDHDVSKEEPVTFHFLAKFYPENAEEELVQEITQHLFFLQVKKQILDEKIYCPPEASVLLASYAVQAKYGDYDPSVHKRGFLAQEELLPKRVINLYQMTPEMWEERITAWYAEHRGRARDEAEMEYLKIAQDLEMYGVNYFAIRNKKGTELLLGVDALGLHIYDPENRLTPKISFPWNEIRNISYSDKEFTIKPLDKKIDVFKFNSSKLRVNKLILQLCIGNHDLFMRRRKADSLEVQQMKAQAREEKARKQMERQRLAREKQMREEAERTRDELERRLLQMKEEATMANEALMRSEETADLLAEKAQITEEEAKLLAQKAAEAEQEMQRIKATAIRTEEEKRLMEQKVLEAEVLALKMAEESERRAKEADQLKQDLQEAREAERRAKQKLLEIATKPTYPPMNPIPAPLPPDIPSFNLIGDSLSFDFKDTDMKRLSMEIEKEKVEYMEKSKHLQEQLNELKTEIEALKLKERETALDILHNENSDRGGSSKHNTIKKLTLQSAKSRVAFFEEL

For the substance “GTP-binding protein 4 (Homo sapiens) (from UniProt Q9BZE4) R394A;K395A”, the “effect of a mutation on the interaction” value is given as “decreasing interaction”.
